What was measured:
[1] = target: human rhinovirus serotype HRV-39; assay: cell-based or functional assay
[2] = target: human rhinovirus serotype HRV-39
[3] = target: mouse (anti-human ICAM) monoclonal antibody

Substance | IC50, cytopathic effect (CPE) assay, HRV-39 on HeLa S3 cells [1] [µg/mL] | fold lower IC50 than soluble ICAM-1, CPE assay [1] [fold] | IC50 (read off the curve) [2] [nM] | IC50 (read off the curve) [3] [µg/mL]
IC1-5D/IgA (ICAM/IgA fusion, gift of Dr. Tim Springer; Martin et al. 1993) (from UniProt P05362 28-480; P01876 103-353) (Fc fusion) | 0.12 | 11.3 | – | –
ICAM-IgA (Fc fusion) | – | – | 3 | –
soluble human ICAM-1 (from UniProt P05362 28-480) (receptor) | 1.35 | – | 40 | 0.8
